In this assay the target is T1, human PD-L1, BRIL fused to the C-terminus, C-terminally His-tagged (human, UniProt Q9NZQ7 19-290).
T1 construct: PD-L1, human; probably ED, TMD and CD together; also called hPD-L1; source: purified; not shown: BRIL, C-terminal, kept; His-tag, C-terminal, kept
The assay is described as follows: pull-down; purified C-terminally His-tagged hPD-L1 variants (BRIL fused) used to pull down purified His-tag free bCMTM6 variants (BRIL fused); examined by SDS-PAGE. The following applies: both partners purified.

T1 sequence (Q9NZQ7 19-290): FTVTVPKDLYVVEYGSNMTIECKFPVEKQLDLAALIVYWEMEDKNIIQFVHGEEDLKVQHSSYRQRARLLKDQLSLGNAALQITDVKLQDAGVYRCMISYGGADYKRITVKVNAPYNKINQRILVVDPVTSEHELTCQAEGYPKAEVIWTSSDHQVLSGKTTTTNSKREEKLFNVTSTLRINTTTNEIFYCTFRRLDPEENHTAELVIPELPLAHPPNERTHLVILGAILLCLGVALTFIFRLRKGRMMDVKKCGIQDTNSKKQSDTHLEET

B1: bovine CMTM6 protein (CKLF-like MARVEL transmembrane domain-containing protein 6), BRIL fused to the C-terminus (natural protein, UniProt Q3ZBE8 1-182, looked up)
chain: MENGQVYRATTEAHPGPGIGPRSGLAAYFTLSRLTGFRRLKLLELVLSLLAFICEEVVSQCTLCGGLYFFEFVSCSAFLLSLLILVVYCTPVYDRVDPAKVKSSDFFITLGTGLVFFVASLTFTLTHDNTIAEIAAIVFGMLASLTYLAEFSFMLREKLKEPRPRKGEATMRREHLTEPLNA
notes: CMTM6, bovine; the crystal structure holds residues 33-165, and 32 amino-terminal and 17 carboxy-terminal residues were not modeled; Whether BRIL was on the crystallized sample is not clear from 'bCMTM6(-BRIL)'; also called bCMTM6; bCMTM6(-BRIL); source: purified (size-exclusion column); not shown: BRIL, C-terminal, kept
On to B1, for which the binding result was “binds”.

For the origin of these results see article doi:10.1101/2023.01.03.522599, “Crystal structure of a mammalian CMTM6 and its interaction model with PD-L1” (bioRxiv, 2023).
